In paper PMC9540345:

Molecular target: FLAG-HA epitope-tagged H3.1 (UniProt P68431)
Test: proximity ligation

DAXX (death domain-associated protein 6) (from UniProt Q9UER7 1-740) (natural protein)
fold enrichment of PLA foci over empty vector control cells: 1.9 fold
